What was measured:
ECF-FolT2 = system: T1, ECF-FolT2; assay: initial rate of radiolabelled uptake into proteoliposomes; type: biochemical, Lactobacillus delbrueckii subsp. bulgaricus; settings: 10 mM lumenal Mg-ATP, pH 7.5, 30 °C; labelled compound (3H tracer); read-out: apparent Km
T1 construct: four-subunit complex, 10xHis-TEV on EcfA, Strep on FolT2; expressed in E. coli MC1061; purified in DDM, reconstituted in proteoliposomes; ~120 kDa; Energy-coupling factor transporter transmembrane protein EcfT

ECF-PanT = system: T2, ECF-PanT; assay: as above; type: biochemical, Lactobacillus delbrueckii subsp. bulgaricus; settings: 5 mM lumenal Mg-ATP, pH 7.5, 30 °C; labelled compound (3H tracer); read-out: apparent Km
T2 construct: four-subunit complex, 10xHis-TEV on EcfA, Strep on PanT; expressed in E. coli MC1061; purified in DDM, reconstituted in proteoliposomes; ~120 kDa; Energy-coupling factor transporter transmembrane protein EcfT

[1] = substrate: Nc1ncnc2c1ncn2[C@@H]1O[C@H](COP(=O)(O)OP(=O)(O)OP(=O)(O)O)[C@@H](O)[C@H]1O; assay: initial rate of radiolabelled pantothenate uptake into proteoliposomes at varied lumenal ATP; type: biochemical, Lactobacillus delbrueckii; settings: 100 nM pantothenate, Mg2+, pH 7.5, 30 °C, sigmoidal, cooperative
[2] = substrate: Nc1ncnc2c1ncn2[C@@H]1O[C@H](COP(=O)(O)OP(=O)(O)OP(=O)(O)O)[C@@H](O)[C@H]1O; assay: initial rate of radiolabelled folate uptake into proteoliposomes at varied lumenal ATP; type: biochemical, Lactobacillus delbrueckii; settings: 100 nM folate, Mg2+, pH 7.5, 30 °C, sigmoidal, cooperative
[3] = target: T3, ECF-PanT (whole pantothenate transporter complex: EcfA, EcfA', EcfT, PanT) (Lactobacillus delbrueckii subsp. …); assay: crystal structure; ECF-PanT-Nanobody 81 complex at 5 mg/mL with 5 mM MgATPγS; 70 mM sodium citrate pH 4.5, 22% (v/v) PEG300, 5°C; 2.8 Å, space group P1, two copies of the complex in the asymmetric unit; settings: both partners purified
T3 construct: Four subunits, Mw ~120 kDa as printed for a full ECF-transporter complex; source: SEC in DDM; copies: + + +
T3 chain 1: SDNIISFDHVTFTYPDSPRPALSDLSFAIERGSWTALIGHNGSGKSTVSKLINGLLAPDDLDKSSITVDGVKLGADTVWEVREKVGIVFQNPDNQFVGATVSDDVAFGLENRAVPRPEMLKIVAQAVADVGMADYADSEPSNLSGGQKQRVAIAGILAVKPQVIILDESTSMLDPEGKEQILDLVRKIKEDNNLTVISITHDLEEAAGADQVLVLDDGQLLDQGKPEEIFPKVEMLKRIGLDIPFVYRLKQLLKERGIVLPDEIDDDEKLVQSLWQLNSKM
T3 chain 2: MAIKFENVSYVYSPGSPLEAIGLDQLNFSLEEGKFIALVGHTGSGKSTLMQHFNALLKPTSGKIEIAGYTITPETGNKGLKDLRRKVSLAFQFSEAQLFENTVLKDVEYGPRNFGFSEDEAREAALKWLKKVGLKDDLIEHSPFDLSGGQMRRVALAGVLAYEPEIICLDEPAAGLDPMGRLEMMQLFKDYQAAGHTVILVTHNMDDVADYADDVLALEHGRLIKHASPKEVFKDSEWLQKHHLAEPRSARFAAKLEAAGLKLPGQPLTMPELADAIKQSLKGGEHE
T3 chain 3: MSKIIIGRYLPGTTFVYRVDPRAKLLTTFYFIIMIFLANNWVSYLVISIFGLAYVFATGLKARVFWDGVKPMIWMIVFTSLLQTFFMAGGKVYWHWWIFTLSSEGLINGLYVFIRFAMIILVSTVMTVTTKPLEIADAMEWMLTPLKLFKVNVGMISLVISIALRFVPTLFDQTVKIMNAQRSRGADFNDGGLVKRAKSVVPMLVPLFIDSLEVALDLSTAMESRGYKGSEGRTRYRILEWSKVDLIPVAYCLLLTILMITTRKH

Nc1nc2ncc(CNc3ccc(C(=O)N[C@@H](CCC(=O)O)C(=O)O)cc3)nc2c(=O)[nH]1 [folate]
Km (ECF-FolT2): 0.082 ± 0.02 µM

CC(C)(CO)[C@@H](O)C(=O)NCCC(=O)O [pantothenate]
Km (ECF-PanT): 0.046 ± 0.011 µM

B1: ECF-PanT (Lactobacillus delbrueckii subsp. bulgaricus ATCC 11842 = JCM 1002) (protein)
chain 1: MSDNIISFDHVTFTYPDSPRPALSDLSFAIERGSWTALIGHNGSGKSTVSKLINGLLAPDDLDKSSITVDGVKLGADTVWEVREKVGIVFQNPDNQFVGATVSDDVAFGLENRAVPRPEMLKIVAQAVADVGMADYADSEPSNLSGGQKQRVAIAGILAVKPQVIILDESTSMLDPEGKEQILDLVRKIKEDNNLTVISITHDLEEAAGADQVLVLDDGQLLDQGKPEEIFPKVEMLKRIGLDIPFVYRLKQLLKERGIVLPDEIDDDEKLVQSLWQLNSKM
chain 2: T3 chain 2
notes: with Energy-coupling factor transporter transmembrane protein EcfT; Pantothenate ECF transporter S component PanT
Km [1]: 5600 ± 1000 µM

B2: ECF-FolT2 (Lactobacillus delbrueckii subsp. bulgaricus ATCC 11842 = JCM 1002) (protein)
chain 1: B1 chain 1
chain 2: T3 chain 2
notes: with Energy-coupling factor transporter transmembrane protein EcfT; Folate ECF transporter S component FolT2
Km [2]: 5600 ± 1700 µM

B3: nanobody CA14381 (Nb81) (VHH)
VHH: QVQLVESGGGLVQPGGSLRLSCTASGFTLDDYAIGWFRQAPGKEREGISCISRSGSSTTYADSVKGRFTISRDRAENTVYLQMNSLKPEDTADYYCAATPVWYWSCAVKVGPYDYWGQGTQVTVSS
notes: the nanobody chain of PDB 6ZG3 (solved here); Llama (Lama glama) nanobody selected by phage display against ECF-PanT; Cloned in a Golden Gate variant of pMESy4 (GenBank KF415192); also called nanobody 81; Nanobody 81; source: E. coli WK6 periplasm, purified (Ni-Sepharose, desalting)
binding result [3]: binds

Reference: PMC7755397, “In vitro reconstitution of dynamically interacting integral membrane subunits of energy-coupling factor transporters” (eLife, 2020)
